Results as given in IntAct's records for PubMed 22892567.

Biological target: cbx3_mouse Cbx3 (UniProt P23198)
Sequence (P23198 whole entry): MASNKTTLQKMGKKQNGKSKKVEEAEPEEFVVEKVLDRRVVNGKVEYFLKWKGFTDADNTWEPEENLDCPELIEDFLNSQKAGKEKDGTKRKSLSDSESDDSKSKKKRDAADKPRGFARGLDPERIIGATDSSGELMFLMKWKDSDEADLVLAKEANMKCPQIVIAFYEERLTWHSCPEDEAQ

Row | effect of a mutation on the interaction | Substance
1 | disrupting interaction strength | Voltage-dependent L-type calcium channel subunit beta-4 (Rattus norvegicus (Rat)) (from UniProt D4A055) P220A
2 | disrupting interaction | Voltage-dependent L-type calcium channel subunit beta-4 (Rattus norvegicus (Rat)) (from UniProt D4A055) V222A
